What was measured:
Test in all cases: IAANS fluorescence titration
[1] = target: cardiac troponin C (L48Q TnC IAANS T53C) (Homo sapiens, UniProt P63316)
[2] = target: cardiac troponin C (V44Q TnC IAANS T53C) (Homo sapiens, UniProt P63316)
[3] = target: cardiac troponin C (M45Q TnC IAANS T53C) (Homo sapiens, UniProt P63316)
[4] = target: cardiac troponin C (F20Q TnC IAANS T53C) (Homo sapiens, UniProt P63316)
[5] = target: cardiac troponin C (TnC IAANS T53C) (Homo sapiens, UniProt P63316)

B1: cardiac troponin I peptide TnI128-180 128-180 (protein)
chain: LTQKIFDLRGKFKRPTLRRVRISADAMMQALLGARAKESLDLRAHLKQVKKED
B1 was tested, and the Kd [1] was 268 nM, the Kd [2] was 262 nM and the Kd [3] was 289 nM. The Kd [4] was 318 nM and the Kd [5] was 200 nM.

Source: article PMC2845643 (2011)
